Consider 6 sequences from publication PMC5713450.

The target in data set [1] is Protein A (UniProt P02976). The data set can be described thus: EIS. The following applies: apparent; 2 mM ferri-/ferrocyanide; Hill h 1.14 +/- 0.15; 3' C6 spacer and thiol; immobilized on gold with MCH; BB: 100 mM NaCl, 20 mM Tris, 10 mM MgCl2, 5 mM KCl, 1 mM CaCl2, pH 7.6; MST in BBT (0.005% Tween 20) at 25 C, 2bind MST with 0.05% Tween 20; EIS in BB + 2 mM ….
Data set [2] addresses Protein A (cited studies) (UniProt P02976). Nature of the data set: RIFTS. The note with it: aptamer immobilized on porous silicon, h 2.61 +/- 0.69, 3' amino, BB: 100 mM NaCl, 20 mM Tris, 10 mM MgCl2, 5 mM KCl, 1 mM CaCl2, pH 7.6, MST in BBT (0.005% Tween 20) at 25 C, 2bind MST with 0.05% Tween 20, EIS in BB + 2 mM …; cited from earlier work.
For data set [3] the target is unchanged. Nature of the data set: SPR. The following applies: BB: 100 mM NaCl, 20 mM Tris, 10 mM MgCl2, 5 mM KCl, 1 mM CaCl2, pH 7.6, MST in BBT (0.005% Tween 20) at 25 C, 2bind MST with 0.05% Tween 20, EIS in BB + 2 mM …, cited from earlier work.
The target is the same in data set [4]. The data set can be described thus: ELONA. The following applies: BB: 100 mM NaCl, 20 mM Tris, 10 mM MgCl2, 5 mM KCl, 1 mM CaCl2, pH 7.6; MST in BBT (0.005% Tween 20) at 25 C, 2bind MST with 0.05% Tween 20; EIS in BB + 2 mM …; cited from earlier work.
Data set [5] concerns the target Protein A (UniProt P02976). The data set can be described thus: MST. The note with it: BB: 100 mM NaCl, 20 mM Tris, 10 mM MgCl2, 5 mM KCl, 1 mM CaCl2, pH 7.6, MST in BBT (0.005% Tween 20) at 25 C, 2bind MST with 0.05% Tween 20, EIS in BB + 2 mM ….
In data set [6] the target is Protein A (cited studies) (UniProt P02976). Nature of the data set: MST. The note with it: 5' thiol; BB: 100 mM NaCl, 20 mM Tris, 10 mM MgCl2, 5 mM KCl, 1 mM CaCl2, pH 7.6; MST in BBT (0.005% Tween 20) at 25 C, 2bind MST with 0.05% Tween 20; EIS in BB + 2 mM …; cited from earlier work.

As for “ATACCAGCTTATTCAATTAGCAACATGAGGGGGATAGAGGGGGTGGGTTCTCTCGGCT [PAA (PA#2/8[S1-58]), 3'-thiol on gold]”, the Kd in data set [1] was 18.5 nM. Turning to “ATACCAGCTTATTCAATTAGCAACATGAGGGGGATAGAGGGGGTGGGTTCTCTCGGCT [PAA, 3'-amino]”, the Kd in data set [2] is 14000 nM. Regarding “ATACCAGCTTATTCAATTAGCAACATGAGGGGGATAGAGGGGGTGGGTTCTCTCGGCT [PAA, 3'-biotin]”, the values for the Kd in data set [3] and in data set [4] were 287 nM and 11.3 nM, respectively.

On to “ATACCAGCTTATTCAATTAGCAACATGAGGGGGATAGAGGGGGTGGGTTCTCTCGGCT [PAA, 3'-fluorescent]”, for which the Kd worked out at 111 nM in data set [5] (BB + 0.05% Tween 20 (2bind), 3' C6 spacer, thiol); 16.4 nM in data set [5] (BBT + 2 mM ferri-/ferrocyanide, 3' C6 spacer, thiol); 22.4 nM in data set [5] (BBT, 0.005% Tween 20, no ferri-/ferrocyanide, 3' C6 spacer, thiol). “ATACCAGCTTATTCAATTAGCAACATGAGGGGGATAGAGGGGGTGGGTTCTCTCGGCT [PAA, 5'-biotin]”: the Kd in data set [4] was 23.7 nM. As for “ATACCAGCTTATTCAATTAGCAACATGAGGGGGATAGAGGGGGTGGGTTCTCTCGGCT [PAA, 5'-fluorescent]”, the Kd in data set [3] (5' thiol) is 1920 nM; in data set [5] (BB + 0.05% Tween 20 (2bind), 5' thiol) it was 116 nM; in data set [6], 94.7 nM.
